Data on five molecules can be found in PMC7182499 (Journal of inherited metabolic disease, 2019).

Positions count from the first letter of the chain named. Numbers in names are those of the source.

By stoichiometry N is commonly meant a count of units in the complex or per binding partner.

Series [1] concerns the target T1, ALDH7A1 (aldehyde dehydrogenase 7A1; antiquitin) (Homo sapiens, UniProt P49419, E427Q).
T1 sequence (P49419 29-539 E427Q): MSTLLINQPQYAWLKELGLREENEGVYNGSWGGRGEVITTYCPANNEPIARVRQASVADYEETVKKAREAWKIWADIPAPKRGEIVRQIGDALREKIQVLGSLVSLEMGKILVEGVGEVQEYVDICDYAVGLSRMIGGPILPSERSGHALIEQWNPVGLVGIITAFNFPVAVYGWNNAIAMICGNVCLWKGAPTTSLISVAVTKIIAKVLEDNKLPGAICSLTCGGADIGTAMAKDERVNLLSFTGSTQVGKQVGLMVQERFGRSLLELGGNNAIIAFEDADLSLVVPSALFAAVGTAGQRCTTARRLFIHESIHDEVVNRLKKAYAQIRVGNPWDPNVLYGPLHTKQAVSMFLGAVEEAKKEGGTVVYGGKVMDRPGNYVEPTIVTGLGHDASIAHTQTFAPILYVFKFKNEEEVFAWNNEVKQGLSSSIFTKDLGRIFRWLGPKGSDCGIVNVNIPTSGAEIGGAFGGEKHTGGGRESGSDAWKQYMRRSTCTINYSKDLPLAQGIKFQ
Description: X-ray crystal structure, […] Å, co-crystallisation. The class given is binding. Particulars: 15 mM NAD+; pH 6.2; ADP portion ordered, NMN disordered.

In series [2] the target is T2, ALDH7A1 (aldehyde dehydrogenase 7A1; antiquitin) (Homo sapiens, UniProt P49419, E427G).
T2 sequence (P49419 29-539 E427G): T1 sequence (P49419 29-539 E427Q) with Q399G
Kind of series: X-ray crystal structure, […] Å, co-crystallisation. The note with it: 5 mM NAD+; pH 6.5; NMN disordered. Format: binding.

Series [3] concerns the molecule itself. Description: SAXS.
Series [4] deals with the molecule itself. Kind of series: crystal structure.

`NC(=O)c1ccc[n+]([C@@H]2O[C@H](COP(=O)(O)OP(=O)(O)OC[C@H]3O[C@@H](n4cnc5c(N)ncnc54)[C@H](O)[C@@H]3O)[C@@H](O)[C@H]2O)c1` [NAD^+]: the “X-ray crystal structure, 2.06 Å, co-crystallisation” value in series [1] is reported as “The crystal structure of E427Q complexed with NAD^+ was determined in space group C2”. In addition, in series [2], the “X-ray crystal structure, 2.15 Å, co-crystallisation” value is listed as “the NMN of NAD^+ bound to E427G is disordered”.

B1: wild-type ALDH7A1 (aldehyde dehydrogenase 7A1) (enzyme, human, UniProt P49419 27-539, looked up)
chain: AFMSTLLINQPQYAWLKELGLREENEGVYNGSWGGRGEVITTYCPANNEPIARVRQASVADYEETVKKAREAWKIWADIPAPKRGEIVRQIGDALREKIQVLGSLVSLEMGKILVEGVGEVQEYVDICDYAVGLSRMIGGPILPSERSGHALIEQWNPVGLVGIITAFNFPVAVYGWNNAIAMICGNVCLWKGAPTTSLISVAVTKIIAKVLEDNKLPGAICSLTCGGADIGTAMAKDERVNLLSFTGSTQVGKQVGLMVQERFGRSLLELGGNNAIIAFEDADLSLVVPSALFAAVGTAGQRCTTARRLFIHESIHDEVVNRLKKAYAQIRVGNPWDPNVLYGPLHTKQAVSMFLGAVEEAKKEGGTVVYGGKVMDRPGNYVEPTIVTGLGHDASIAHTETFAPILYVFKFKNEEEVFAWNNEVKQGLSSSIFTKDLGRIFRWLGPKGSDCGIVNVNIPTSGAEIGGAFGGEKHTGGGRESGSDAWKQYMRRSTCTINYSKDLPLAQGIKFQ
In the case of B1, the “stoichiometry N” value in series [3] was 4.

B2: ALDH7A1 E427Q (Glu427Gln) (enzyme, human, UniProt P49419 27-539, looked up)
chain: B1 chain with E401Q
Take B2: the “stoichiometry N” value in series [4] was 4.

B3: ALDH7A1 E427D (Glu427Asp) (enzyme, human, UniProt P49419 27-539, looked up)
chain: B1 chain with E401D
For the molecule B3, the “stoichiometry N” value in series [4] worked out at 4.

B4: ALDH7A1 E427G (Glu427Gly) (enzyme, human, UniProt P49419 27-539, looked up)
chain: B1 chain with E401G
Turning to B4, in series [4], the “stoichiometry N” value came to 4.
